Results taken from IntAct's records for PubMed 35512704.

B1: Speckle-type POZ protein (Homo sapiens), O43791 (parent)
chain: MSRVPSPPPPAEMSSGPVAESWCYTQIKVVKFSYMWTINNFSFCREEMGEVIKSSTFSSGANDKLKWCLRVNPKGLDEESKDYLSLYLLLVSCPKSEVRAKFKFSILNAKGEETKAMESQRAYRFVQGKDWGFKKFIRRDFLLDEANGLLPDDKLTLFCEVSVVQDSVNISGQNTMNMVKVPECRLADELGGLWENSRFTDCCLCVAGQEFQAHKAILAARSPVFSAMFEHEMEESKKNRVEINDVEPEVFKEMMCFIYTGKAPNLDKMADDLLAAADKYALERLKVMCEDALCSNLSVENAAEILILADLHSADQLKTQAVDFINYHASDVLETSGWKSMVVSHPHLVAEAYRSLASAQCPFLGPPRKRLKQS
partner: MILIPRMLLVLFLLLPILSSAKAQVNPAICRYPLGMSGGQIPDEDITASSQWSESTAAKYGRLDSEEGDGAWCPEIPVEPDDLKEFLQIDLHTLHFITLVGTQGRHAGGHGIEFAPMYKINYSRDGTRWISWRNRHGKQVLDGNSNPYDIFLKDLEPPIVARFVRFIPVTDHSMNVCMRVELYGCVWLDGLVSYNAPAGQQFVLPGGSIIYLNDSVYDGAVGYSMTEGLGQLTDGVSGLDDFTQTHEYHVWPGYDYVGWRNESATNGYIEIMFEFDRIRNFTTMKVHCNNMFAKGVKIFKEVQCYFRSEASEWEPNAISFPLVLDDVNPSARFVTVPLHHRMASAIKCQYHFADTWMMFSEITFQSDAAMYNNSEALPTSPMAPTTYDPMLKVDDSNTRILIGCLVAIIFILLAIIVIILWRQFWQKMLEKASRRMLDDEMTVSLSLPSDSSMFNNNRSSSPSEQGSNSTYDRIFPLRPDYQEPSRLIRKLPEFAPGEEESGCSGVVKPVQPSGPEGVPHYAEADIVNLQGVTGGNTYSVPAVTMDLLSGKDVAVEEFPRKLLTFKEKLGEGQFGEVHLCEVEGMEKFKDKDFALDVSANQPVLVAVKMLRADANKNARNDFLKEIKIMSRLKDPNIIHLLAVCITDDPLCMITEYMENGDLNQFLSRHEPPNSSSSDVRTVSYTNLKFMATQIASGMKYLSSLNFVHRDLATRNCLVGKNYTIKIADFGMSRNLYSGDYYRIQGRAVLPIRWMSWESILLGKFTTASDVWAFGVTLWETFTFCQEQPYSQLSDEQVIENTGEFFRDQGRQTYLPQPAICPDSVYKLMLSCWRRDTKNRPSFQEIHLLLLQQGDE
B2: Speckle-type POZ protein (Homo sapiens), O43791 (parent)
chain: B1 chain
partner: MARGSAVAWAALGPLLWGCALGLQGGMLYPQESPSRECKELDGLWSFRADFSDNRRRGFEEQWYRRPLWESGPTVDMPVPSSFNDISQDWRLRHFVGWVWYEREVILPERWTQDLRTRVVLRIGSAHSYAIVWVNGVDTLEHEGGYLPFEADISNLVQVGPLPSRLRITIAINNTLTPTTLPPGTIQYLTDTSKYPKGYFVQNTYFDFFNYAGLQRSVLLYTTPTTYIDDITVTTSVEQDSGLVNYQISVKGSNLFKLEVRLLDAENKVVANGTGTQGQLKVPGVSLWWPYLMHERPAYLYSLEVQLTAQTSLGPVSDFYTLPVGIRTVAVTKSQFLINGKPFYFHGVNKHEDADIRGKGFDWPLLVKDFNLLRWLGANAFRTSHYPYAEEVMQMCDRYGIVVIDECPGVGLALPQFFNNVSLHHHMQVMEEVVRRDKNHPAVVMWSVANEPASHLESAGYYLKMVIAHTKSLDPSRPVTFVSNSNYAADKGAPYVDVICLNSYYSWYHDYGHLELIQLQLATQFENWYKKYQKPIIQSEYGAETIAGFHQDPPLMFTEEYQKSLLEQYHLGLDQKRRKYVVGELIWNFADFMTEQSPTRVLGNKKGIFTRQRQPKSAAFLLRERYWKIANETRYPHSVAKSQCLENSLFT
B3: Speckle-type POZ protein (Homo sapiens), O43791 (parent)
chain: B1 chain
partner: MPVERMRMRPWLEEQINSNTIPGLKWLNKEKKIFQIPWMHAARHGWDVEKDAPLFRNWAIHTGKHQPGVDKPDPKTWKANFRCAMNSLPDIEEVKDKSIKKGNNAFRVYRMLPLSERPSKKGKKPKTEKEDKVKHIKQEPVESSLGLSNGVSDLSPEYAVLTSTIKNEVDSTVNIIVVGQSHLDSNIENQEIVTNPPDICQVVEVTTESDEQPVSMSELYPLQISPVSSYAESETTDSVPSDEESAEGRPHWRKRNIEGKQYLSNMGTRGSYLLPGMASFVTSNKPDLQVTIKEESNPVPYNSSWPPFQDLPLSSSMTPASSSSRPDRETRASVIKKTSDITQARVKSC
B4: Speckle-type POZ protein (Homo sapiens), O43791 (parent)
chain: B1 chain
partner: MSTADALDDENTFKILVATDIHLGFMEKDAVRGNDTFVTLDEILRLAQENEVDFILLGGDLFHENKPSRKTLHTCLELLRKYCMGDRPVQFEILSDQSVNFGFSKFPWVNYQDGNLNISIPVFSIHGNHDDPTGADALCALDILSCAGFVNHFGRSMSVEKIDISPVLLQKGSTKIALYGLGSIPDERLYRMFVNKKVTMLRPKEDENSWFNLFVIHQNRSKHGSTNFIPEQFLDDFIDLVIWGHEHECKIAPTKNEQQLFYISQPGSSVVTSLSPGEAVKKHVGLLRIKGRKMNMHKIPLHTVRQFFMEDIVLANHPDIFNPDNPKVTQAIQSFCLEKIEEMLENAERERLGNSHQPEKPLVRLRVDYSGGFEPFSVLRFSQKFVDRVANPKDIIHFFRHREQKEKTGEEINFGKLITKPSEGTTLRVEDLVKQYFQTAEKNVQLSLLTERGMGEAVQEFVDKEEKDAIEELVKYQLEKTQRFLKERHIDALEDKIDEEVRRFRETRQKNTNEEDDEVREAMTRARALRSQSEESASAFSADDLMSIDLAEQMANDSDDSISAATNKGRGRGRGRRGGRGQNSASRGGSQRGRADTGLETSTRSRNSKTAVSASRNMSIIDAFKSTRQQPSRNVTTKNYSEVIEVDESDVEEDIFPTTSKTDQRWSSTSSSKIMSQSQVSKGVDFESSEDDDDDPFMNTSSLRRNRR
B5: Speckle-type POZ protein (Homo sapiens), O43791 (parent)
chain: B1 chain
partner: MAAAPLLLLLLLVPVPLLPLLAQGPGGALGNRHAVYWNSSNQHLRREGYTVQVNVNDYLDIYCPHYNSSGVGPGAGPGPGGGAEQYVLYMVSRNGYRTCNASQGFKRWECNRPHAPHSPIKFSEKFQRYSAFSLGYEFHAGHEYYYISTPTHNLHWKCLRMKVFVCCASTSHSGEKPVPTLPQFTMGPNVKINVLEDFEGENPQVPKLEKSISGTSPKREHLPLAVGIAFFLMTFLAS
B6: Speckle-type POZ protein (Homo sapiens), O43791 (parent)
chain: B1 chain
partner: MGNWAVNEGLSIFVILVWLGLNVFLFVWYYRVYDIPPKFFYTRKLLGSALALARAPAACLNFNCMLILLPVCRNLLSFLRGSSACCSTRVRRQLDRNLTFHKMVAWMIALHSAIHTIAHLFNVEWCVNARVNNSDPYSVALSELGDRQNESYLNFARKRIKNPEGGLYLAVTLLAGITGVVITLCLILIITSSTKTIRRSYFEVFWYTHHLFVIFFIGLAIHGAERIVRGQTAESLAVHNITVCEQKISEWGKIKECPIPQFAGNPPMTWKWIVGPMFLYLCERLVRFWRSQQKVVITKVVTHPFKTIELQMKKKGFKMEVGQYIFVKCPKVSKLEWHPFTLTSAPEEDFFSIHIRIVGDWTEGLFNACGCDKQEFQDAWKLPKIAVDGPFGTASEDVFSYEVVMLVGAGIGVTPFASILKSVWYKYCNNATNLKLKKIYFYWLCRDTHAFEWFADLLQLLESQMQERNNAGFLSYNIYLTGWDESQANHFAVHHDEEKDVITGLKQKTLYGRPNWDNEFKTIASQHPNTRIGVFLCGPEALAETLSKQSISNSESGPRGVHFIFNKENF
B7: Speckle-type POZ protein (Homo sapiens), O43791 (parent)
chain: B1 chain
partner: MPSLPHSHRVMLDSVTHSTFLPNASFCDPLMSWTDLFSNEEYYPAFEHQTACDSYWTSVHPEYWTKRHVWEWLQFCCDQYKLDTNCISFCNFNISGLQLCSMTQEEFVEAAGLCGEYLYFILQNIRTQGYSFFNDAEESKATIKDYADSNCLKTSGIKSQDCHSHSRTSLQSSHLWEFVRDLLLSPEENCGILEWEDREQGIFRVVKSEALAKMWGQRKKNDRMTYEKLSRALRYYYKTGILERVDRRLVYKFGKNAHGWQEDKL

Variants of: B1
Settings: with ddr2_human DDR2, Q16832

effect of a mutation on the interaction | Variant
with no effect | F133L

Variants of: B1
Settings: with ddr2_human DDR2, Q16832
Remark: another data set of the same source

effect of a mutation on the interaction | Variant
with no effect | F133V

Variants of: B2
Settings: with bglr_human GUSB

effect of a mutation on the interaction | Variant
with no effect | F102C

Variants of: B2
Settings: with bglr_human GUSB
Remark: another data set of the same source

effect of a mutation on the interaction | Variant
with no effect | Y87C

Variants of: B2
Settings: with bglr_human GUSB
Remark: another data set of the same source

effect of a mutation on the interaction | Variant
with no effect | F133L

Variants of: B2
Settings: with bglr_human GUSB
Remark: another data set of the same source

effect of a mutation on the interaction | Variant
with no effect | F133V

Variants of: B3
Settings: with irf2_human IRF2, P14316

effect of a mutation on the interaction | Variant
with no effect | F133V

Variants of: B3
Settings: with irf2_human IRF2, P14316
Remark: another data set of the same source

effect of a mutation on the interaction | Variant
with no effect | F133L

Variants of: B3
Settings: with irf2_human IRF2, P14316
Remark: another data set of the same source

effect of a mutation on the interaction | Variant
with no effect | Y87C

Variants of: B3
Settings: with irf2_human IRF2, P14316
Remark: another data set of the same source

effect of a mutation on the interaction | Variant
with no effect | F102C

Variants of: B4
Settings: with mre11_human MRE11, P49959

effect of a mutation on the interaction | Variant
with no effect | F133L

Variants of: B4
Settings: with mre11_human MRE11, P49959
Remark: another data set of the same source

effect of a mutation on the interaction | Variant
with no effect | F133V

Variants of: B4
Settings: with mre11_human MRE11, P49959
Remark: another data set of the same source

effect of a mutation on the interaction | Variant
with no effect | F102C

Variants of: B4
Settings: with mre11_human MRE11, P49959
Remark: another data set of the same source

effect of a mutation on the interaction | Variant
with no effect | Y87C

Variants of: B5
Settings: with efna3_human EFNA3, P52797

effect of a mutation on the interaction | Variant
with no effect | F133L

Variants of: B5
Settings: with efna3_human EFNA3, P52797
Remark: another data set of the same source

effect of a mutation on the interaction | Variant
with no effect | F133V

Variants of: B5
Settings: with efna3_human EFNA3, P52797
Remark: another data set of the same source

effect of a mutation on the interaction | Variant
with no effect | Y87C

Variants of: B5
Settings: with efna3_human EFNA3, P52797
Remark: another data set of the same source

effect of a mutation on the interaction | Variant
with no effect | F102C

Variants of: B6
Settings: with cy24b_human CYBB

effect of a mutation on the interaction | Variant
with no effect | F102C

Variants of: B6
Settings: with cy24b_human CYBB
Remark: another data set of the same source

effect of a mutation on the interaction | Variant
with no effect | F133L

Variants of: B6
Settings: with cy24b_human CYBB
Remark: another data set of the same source

effect of a mutation on the interaction | Variant
with no effect | F133V

Variants of: B6
Settings: with cy24b_human CYBB
Remark: another data set of the same source

effect of a mutation on the interaction | Variant
with no effect | Y87C

Variants of: B7
Settings: with elf5_human ELF5, Q9UKW6

effect of a mutation on the interaction | Variant
with no effect | F133L
